The record followed here is doi:10.1101/2024.06.16.598887 (bioRxiv, 2024).

Like-named read-outs stand apart in the source and are kept apart here.

Assay [1] addresses T1, pig (Sus scrofa) skeletal muscle alpha-actin (pig (Sus scrofa), UniProt P68137 1-377). The assay is described as follows: ITC. (In general: Isothermal titration calorimetry measures the heat released or taken up as one component is titrated into another.)
Assay [2] deals with T1, pig (Sus scrofa) skeletal muscle …. The experiment in a line: ITC. This is another data set of the same source.

B1: Anopheles gambiae actin depolymerizing factor (natural protein)
chain: MASGVTVSDVCKTTYEEIKKDKKHRYVIFYIRDEKQIDVEVIGDRNAEYDSFLEDIQKGGPGECRYGLFDFEYMHQCQGTSESSKKQKLFLMSWCPDTAKVKKKMLYSSSFDALKKSLVGVQKYIQATDLSEASREAVEEKLRATDRQ
Usually Kd stands for the equilibrium constant for the complex coming apart. One may read the stoichiometry N as the number of molecules, sites or subunits per partner or assembly. As for B1, in assay [1], binding was characterised by a dissociation constant (Kd) of 0.8 nM, the dH is -13.6 ± 0.1 kcal/mol and the “stoichiometry N” value is approximately 1. Moreover, in assay [2], the Kd amounted to 1.6 nM and the dH is -14.1 ± 0.1 kcal/mol.
